# Results taken from patent US20220073565A1 (University of Washington, published 2022).
# No end group written: not given here.
# T1: YFP-degronSwitcha
# T1 sequence: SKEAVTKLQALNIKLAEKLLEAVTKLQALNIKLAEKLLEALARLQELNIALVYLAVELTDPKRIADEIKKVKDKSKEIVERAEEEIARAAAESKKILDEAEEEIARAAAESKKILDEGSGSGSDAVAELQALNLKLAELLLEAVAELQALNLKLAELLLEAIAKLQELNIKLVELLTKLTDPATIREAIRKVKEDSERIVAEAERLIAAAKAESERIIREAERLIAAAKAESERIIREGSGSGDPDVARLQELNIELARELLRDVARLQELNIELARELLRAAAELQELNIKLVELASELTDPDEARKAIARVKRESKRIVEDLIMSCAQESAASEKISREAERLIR
# T2: BclB (UniProt Q9HD36 11-178, limits assumed)
# T2 construct: also called Bcl2 homolog BclB
# T2 sequence (looked up): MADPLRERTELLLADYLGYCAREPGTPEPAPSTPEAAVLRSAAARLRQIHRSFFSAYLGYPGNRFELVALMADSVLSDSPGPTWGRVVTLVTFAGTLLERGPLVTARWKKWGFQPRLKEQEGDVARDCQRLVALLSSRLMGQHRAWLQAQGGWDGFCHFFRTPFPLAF
# T3: mSin3A-PAH2 domain (UniProt Q60520 300-383, biotin)
# T3 construct: domain: PAH2; 0.1 µg immobilised on streptavidin biosensor tips; also called Biotin-mSin3A-PAH2; PAH2 domain of the mSin3A transcriptional repressor
# T3 sequence (looked up): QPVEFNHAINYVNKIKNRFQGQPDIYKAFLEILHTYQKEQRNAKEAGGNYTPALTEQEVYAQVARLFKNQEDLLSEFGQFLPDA
# Legend:
# YFP-degronSwitcha = target: T1, YFP-degronSwitcha; test: cell-based or functional assay
# [1] = target: dCas9-VP64-RFP-degronSwitcha; test: cell-based or functional assay
# SynTF-RFP-degronSwitcha = test: cell-based or functional assay
# Bcl2 [2] = target: T4, Bcl2 (UniProt P10415 1-207, limits assumed, biotinylated); test: bio-layer interferometry, Bcl2 immobilised, 250 nM BimLOCKR with and without key
# T4 construct: Loaded on streptavidin biosensors; also called biotinylated Bcl2
# Description: The range of key concentrations over which BimLOCKR is activated can be controlled by tuning KCK by varying the length of the key since the interaction energy is roughly proportional to the total surface area of interacting residues. […] Truncating an additional five residues completely negates key activation, indicating the equilibria are very sensitive to small changes in free energy as expected from our model (FIG. 2d). […] Bio-layer interferometry experiments were performed with target immobilized assayed against the switch with or without key in solution, as well as with key immobilized and assayed against the switch alone or with target in solution. […] This fit has an RMSE (root-mean-square-error) of 0.072 nm to the observed BLI data.
# BLI measurements were made on an Octet® RED96 System (ForteBio) with streptavidin (SA) coated biosensors and all analysis was performed within ForteBio Data Analysis Software version 9.0.0.10. Assays were performed with protein diluted into HBS-EP+ Buffer from GE (10 mM HEPES, 150 mM NaCl, 3 mM EDTA, 0.05% v/v Surfactant P20, 0.5% non-fat dry milk, pH7.4 at room temperature). Biotinylated Bcl2 was loaded onto the SA tips to a threshold of 0.5 nm programmed into the machine's protocol.
# Bcl2 [3] = target: T4, Bcl2; test: global fit of the thermodynamic model to bio-layer interferometry data (target or key immobilised)
# BclB = target: T2, BclB; test: as above
# Bcl2 [4] = target: T4, Bcl2; test: bio-layer interferometry (Octet), Bcl2 immobilised, switch with nine residue toehold
# mSin3A-PAH2 domain = target: T3, mSin3A-PAH2 domain; test: bio-layer interferometry, Biotin-mSin3A-PAH2 on streptavidin tips
# Source text: FIG. 12a-d: Designed Mad1-SID LOCKR switches for key-dependent transcriptional repression. FIG. 12a. Crystal structure of the interaction between Mad1-SID domain (white) and the PAH2 domain of the mSin3A transcriptional repressor (black) (PDB ID: 1E91). Caging of the Mad1-SID domain should enable key-dependent recruitment of the transcriptional repressor mSin3A enabling precise epigenetic regulation. FIG. 12b. Designed Mad1-LOCKR switches, with Cage component encoding the Mad1-SID sequence at different positions (dark gray). FIG. 12c. SDS-PAGE gel showing successfully purified 1fix302Mad1 (1) , 1fix_309_Mad1 (2) and MBP_Mad1 (3). FIG. 12d. Biolayer interferometry analysis of key-activated binding of the Mad1-LOCKR switches to the purified rnSin3A-PAH2 domain. MBP-Mad1 is a positive control for mSin3a-PAH2 binding. […] Kinetic assays were performed by immobilizing 0.1μg of Biotin-mSin3A-PAH2 protein on Streptavidin biosensor tips (ForteBio). Protein cages were tested at 50 nM in presence or absence of 500 nM Keyₐ.
# T4 sequence (P10415 1-207 limits assumed): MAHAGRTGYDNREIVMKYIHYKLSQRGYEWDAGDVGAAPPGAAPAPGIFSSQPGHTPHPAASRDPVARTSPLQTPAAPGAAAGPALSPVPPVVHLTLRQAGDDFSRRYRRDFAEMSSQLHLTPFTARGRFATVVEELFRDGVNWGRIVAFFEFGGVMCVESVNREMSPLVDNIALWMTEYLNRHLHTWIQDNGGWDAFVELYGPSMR
binder,measurement,setting,value
"Keya-BFP (designed binder, not shown: large carriers, also: C-terminal fusion to BFP (mTagBFP2), linker not given here) EARKAIARVKRESKRIVEDAERLIREAAAASEKISREAERLIREAAAASEKISRE","reduction of YFP fluorescence (flow cytometry, S. cerevisiae)",YFP-degronSwitcha,< 73%
same,reduction of RFP fluorescence upon induction of Key at 31.25 nM E2,[1],78%
same,reduction of pTet7x-YFP reporter fluorescence upon induction of Key at 31.25 nM E2,[1],41%
"Keya-BFP-NLS (designed binder, not shown: large carriers) EARKAIARVKRESKRIVEDAERLIREAAAASEKISREAERLIREAAAASEKISRE","reduction of RFP fluorescence at 31.25 nM E2, maximal Key induction",SynTF-RFP-degronSwitcha,61%
same,"reduction of pSynTF-YFP reporter fluorescence at 31.25 nM E2, maximal Key induction",SynTF-RFP-degronSwitcha,82%
"BimLOCKR (18-residue extension with a 9 residue toehold) (designed binder, the tested form has the latch truncated by nine residues at the C-terminus (toehold); also called BimLOCKRa) MGSSHHHHHHSSGLVPRGSHMSKEAVTKLQALNIKLAEKLLEAVTKLQALNIKLAEKLLEALARLQELNIALVYLAVELTDPKRIADEIKKVKDKSKEIVERAEEEIARAAAESKKILDEAEEEIARAAAESKKILDEGSGSGSDAVAELQALNLKLAELLLEAVAELQALNLKLAELLLEAIAKLQELNIKLVELLTKLTDPATIREAIRKVKEDSERIVAEAERLIAAAKAESERIIREAERLIAAAKAESERIIREGSGSGDPDVARLQELNIELARELLRDVARLQELNIELARELLRAAAELQELNIKLVELASELTDEIWIAQELRRIGDEFNAYYADAERLIREAAAASEKISREAERLIREAA",fold activation of binding by the key (with key against without key),Bcl2 [2],~40 fold
same,Kd,Bcl2 [3],28 nM
same,Kd,BclB,32 nM
"BimLOCKRb (nine residue toehold on the latch) (designed binder, Entry is printed with full latch and optional His tag; tested with a nine residue toehold (latch truncated by nine residues)) MGSSHHHHHHSSGLVPRGSHMSHAAVIKLSDLNIRLLDKLLQAVIKLTELNAELNRKLIEALQRLFDLNVALVHLAAELTDPKRIADEIKKVKDKSKEIVERAEEEIARAAAESKKILDEAEEEIARAAAESKKILDEGSGSGSDAVAELQALNLKLAELLLEAVAELQALNLKLAELLLEAIAKLQELNIKLVELLTKLTDPATIREAIRKVKEDSERIVAEAERLIAAAKAESERIIREAERLIAAAKAESERIIREGSGSNDPQVAQNQETFIELARDALRLVAENQEAFIEVARLTLRAAALAQEVAIKAVEAASEGGSGSGNEIWIAQELRRIGDEFNAYYAEHKEIHDKLRKKNKKAREDLKKKADE",fold activation of binding by the cognate key (with key against without key),Bcl2 [4],22 fold
"BimLOCKRc (nine residue toehold on the latch) (designed binder, Entry is printed with full latch and optional His tag; tested with a nine residue toehold (latch truncated by nine residues)) MGSSHHHHHHSSGLVPRGSHMSLEAVLKLAELNLKLSDKLAEAVQKLAALLNKLLEKLSEALQRLFELNVALVTLAIELTDPKRIADEIKKVKDKSKEIVERAEEEIARAAAESKKILDEAEEEIARAAAESKKILDEGSGSGSDAVAELQALNLKLAELLLEAVAELQALNLKLAELLLEAIAKLQELNIKLVELLTKLTDPATIREAIRKVKEDSERIVAEAERLIAAAKAESERIIREAERLIAAAKAESERIIREGSGSNDPLVARLQELLIEHARELLRLVATSQEIFIELARAFLANAAQLQEAAIKAVEAASENGSGEIWIAQELRRIGDEFNAYYAQNQKLLKDHKRAQEKLNRELEELKKKHKK",fold activation of binding by the cognate key (with key against without key),Bcl2 [4],8 fold
"1fix_302_Mad1 (designed binder, Optional His-TEV tag printed in parentheses) MGSHHHHHHGSGSENLYFQGSKEAAKKLQDLNIELARKLLEASTKLQRLNIRLAEALLEAIARLQELNLELVYLAVELTDPKRIRDEIKEVKDKSKEIIRRAEKEIDDAAKESKKILEEARKAIRDAAEESRKILEEGSGSGSDALDELQKLNLELAKLLLKAIAETQDLNLRAAKAFLEAAAKLQELNIRAVELLVKLTDPATIRRALEHAKRRSKEIIDEAERAIRAAKRESERIIEEARRLIEKAKEESERIIREGSGSGDPDIKKLQDLNIELARELLRAHAQLQRLNLELLRELLRALAQLQELNLDLLRLASELTNIQMLLEAADYLERESKRIVEDAERLIREAAAASEKISREAERSIREAAAASEKISRE",binding result,mSin3A-PAH2 domain,no binding
